These results are taken from US20150239950A1 (SALK INSTITUTE FOR BIOLOGICAL STUDIES, published 2015).

Like-named read-outs stand apart in the source and are kept apart here.

Sequences and labels used below:
B1: ActRIIb-ECD (extracellular domain of mouse ActRIIb, residues 1-98) (receptor, UniProt P27040 19-137, looked up)
chain: SGRGEAETRECIYYNANWELERTNQSGLERCEGEQDKRLHCYASWRNSSGTIELVKKGCWLDDFNCYDRQECVATEENPQVYFCCCEGNFCNERFTHLPEPGGPEVTYEPPPTAPTLLT
notes: extracellular domain; also called type II receptor ECD
B4: BMPRIa-ECD (extracellular domain of human BMPRIa, residues 1-129) (receptor, UniProt P36894 24-152, looked up)
chain: QNLDSMLHGTGMKSDSDQKKSENGVTLAPEDTLPFLKCYCSGHCPDDAINNTCITNGHCFAIIEEDDQGETTLASGCMKYEGSDFQCKDSPKAQLRRTIECCRTNLCNQYLQPTLPPVVIGPFFDGSIR
notes: extracellular domain; also called type I receptor ECD
B9: BMP2/BMP6 heterodimer (ligand)
chain 1: QAKHKQRKRLKSSCKRHPLYVDFSDVGWNDWIVAPPGYHAFYCHGECPFPLADHLNSTNHAIVQTLVNSVNSKIPKACCVPTELSAISMLYLDENEKVVLKNYQDMVVEGCGCR
chain 2: MQQSRNRSTQSQDVARVSSASDYNSSELKTACRKHELYVSFQDLGWQDWIIAPKGYAANYCDGECSFPLNAHMNATNHAIVQTLVHLMNPEYVPKPCCAPTKLNAISVLYFDDNSNVILKKYRNMVVRACGCH
notes: also called B2/B6

In assay [1] the target is T1, BMP6 homodimer (mature domain of human BMP6, residues 1-132) (human, UniProt P22004 382-513).
T1 sequence: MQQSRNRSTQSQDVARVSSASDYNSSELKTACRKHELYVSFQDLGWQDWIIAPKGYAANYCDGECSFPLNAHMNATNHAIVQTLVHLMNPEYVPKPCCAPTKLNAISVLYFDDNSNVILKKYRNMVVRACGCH
In words: SPR (BIAcore), receptor ECD immobilized, ligand flowed; KD = koff/kon. How it is done:
(§1) The affinity of the ligands to BMPRIa, ActRII, and ActRIIb was monitored by using a Biacore 3000 (GE Healthcare) and the data were analyzed by using BlAevaluation software ver. 4.1 (GE Healthcare). Using primary amine coupling, receptor ECDs were immobilized on a CM5 chip. The receptors were immobilized independently on flow cells 2-4 for 10 minutes at a flow rate of 5 μL/min and a concentration of 20 μM in 10 mM Na acetate, pH 4.0. Flow cell 1 was left blank, no immobilized protein, as a negative control. […] A minimum of five concentrations, plus a zero concentration, were run per sample for kinetic analysis and the data were fit by using a global 1:1 Langmuir binding with mass transfer.
(§2) Ligand affinity data from BIAcore experiments. The BIAcore data is shown as the dissociation rate, koff, and the association rate, kₒₙ, based on a global fit using the kinetic model 1:1 Langmuir binding with mass transfer. The binding constant KD is calculated as koff/kₒₙ. The receptors were immobilized to the chip surface, with the ligands flowed over the surface.

In assay [2] the target is B9. The description is as above. How it is done:
as §1, §2

Assay [3] has as its target T1, BMP6 homodimer (mature domain of human …). In words: SPR (BIAcore), receptor ECD immobilized, ligand flowed; 1:1 Langmuir with mass transfer. Here is the method: as §1, §2
For orientation: SPR reads the build-up and loss of mass on a sensor chip optically.

The target is the same in assay [4]. In words: SPR, receptor binding affinity.
The target of assay [5] is B9. Put plainly: SPR, receptor binding affinity.
Assay [6] concerns the target T2, ActRII-ECD (extracellular domain of mouse ActRII, residues 1-102) (mouse, UniProt P27038 20-135).
T2 construct: extracellular domain; also called type II receptor ECD
Put plainly: SPR (BIAcore), receptor ECD immobilized, ligand flowed; KD = koff/kon; single trial. How it is done:
(§3) The receptors were immobilized to the chip surface with the ligands flowed over the surface. The data were fit to a kinetic model (1:1 Langmuir binding with mass transfer) in which KD is calculated as koff/kₒₙ. The table reports data from a single trial.

Assay [7] has as its target T2, ActRII-ECD (extracellular domain of …). Put plainly: SPR (BIAcore), receptor ECD immobilized, ligand flowed; 1:1 Langmuir with mass transfer; single trial. Here is the method:
as §3

Assay [8] has the same target. In words: SPR (BIAcore), receptor ECD immobilized, ligand flowed; KD = koff/kon; single trial. Here is the method:
as §3
The source holds these as a separate data set.

Assay [9] shares this target. Put plainly: SPR (BIAcore), receptor ECD immobilized.
Assay [10] shares this target. Put plainly: SPR (BIAcore), receptor ECD immobilized, ligand flowed; 1:1 Langmuir with mass transfer; single trial. Here is the method:
as §3
The source holds these as a separate data set.

In assay [11] the target is B4. Put plainly: SPR (BIAcore), receptor ECD immobilized, ligand flowed; 'No Binding indicates that the interaction was not detectable'. How it is done: as §3
The target of assay [12] is Cripto (mouse Cripto construct transfected into HEK293T cells) (mouse) (UniProt P51865). Put plainly: cell-based or functional assay.
The target in assay [13] is T2, ActRII-ECD (extracellular domain of …). In words: native-PAGE receptor ECD saturation assay, 5 µg ActRII-ECD with 10 µg ligand, Coomassie densitometry.
Assay [14] concerns the target B1. Put plainly: SPR (BIAcore), receptor ECD immobilized, ligand flowed; KD = koff/kon. How it is done:
as §1, §2

Assay [15] has as its target B1. In words: SPR, receptor binding affinity.

T2 sequence (P27038 20-135): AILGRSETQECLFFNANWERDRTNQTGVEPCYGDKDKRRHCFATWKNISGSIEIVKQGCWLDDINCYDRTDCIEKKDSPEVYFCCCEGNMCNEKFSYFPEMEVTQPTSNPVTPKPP
Cripto (mouse Cripto construct transfected into HEK293T cells) (mouse), sequence (P51865 18-134): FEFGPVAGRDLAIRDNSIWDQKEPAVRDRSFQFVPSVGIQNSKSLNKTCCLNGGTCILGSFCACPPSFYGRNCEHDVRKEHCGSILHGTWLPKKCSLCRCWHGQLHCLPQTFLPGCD

B1: the Kd in assay [1] was 6.68 nM; in assay [2], 6.52 nM; in assay [4], 6.68 nM; in assay [5], 6.52 nM. Besides, the koff in [3] came to 0.00182 s⁻¹; in assay [4] it was 0.00182 s⁻¹; in [5], 0.00861 s⁻¹. The kon in assay [3] worked out at 273000 M⁻¹ s⁻¹; in [4], 273000 M⁻¹ s⁻¹; in assay [5] it was 1.32e+06 M⁻¹ s⁻¹.

B2: AB2-011 (1b2b3b4b5a6a activin/BMP-2 chimera) (ligand)
chain: MQAKHQQRKRLKSSCKRHPLYVDFSDVGWNDWIVAPPGYHAFYCHGECPFPLADHLNSTNHAIVQTLVNSVNSKIPKACCVPTKLRPSMLYYDDGQNIIKKDIQNMIVEECGCS
As to B2, binding in [6] was put at a Kd of 0.525 nM. In assay [7], the koff was 0.000339 s⁻¹ and the kon stood at 646000 M⁻¹ s⁻¹.

B3: AB2-008 (1b2a3a4a5a6a activin/BMP-2 chimera) (ligand)
chain: MQAKHKQRKRLKSSCKRHPLYVDFSDVGWNDWIIAPSGYHANYCEGECPSHIAGTSGSSLSFHSTLVNHYRMRGHSPFANLKSCCVPTKLRPMSMLYYDDGQNIIKKDIQNMIVEECGCS
notes: The entry includes the initiator Met
B3 had a Kd in assay [8] of 0.344 nM. For the same molecule, the “fold weaker affinity against activin-βA” value in assay [9] is roughly 1.7 fold. In assay [10], this molecule yielded a koff of 0.000824 s⁻¹ and a kon of 2.39e+06 M⁻¹ s⁻¹. The binding result in assay [11] is “no binding”.

B4: the Kd in [1] and in [4] was 62.8 nM in each case.

B5: AB2-015 (1b2a3b4b5b6a activin/BMP-2 chimera) (ligand)
chain: MQAKHKQRKRLKSSCKRHPLYVDFSDVGWNDWIIAPSGYHANYCDGECPFPLADHLNSTNHAIVQTLVNSVNSKIPKACCVPTELSAISMLYYDDGQNIIKKDIQNMIVEECGCS
As for B5, the Kd in [6] is 0.23 nM. The “fold higher binding against BMP-2” value in assay [9] is roughly 100 fold. In [7], this molecule registered a koff of 0.000371 s⁻¹ and a kon of 1.61e+06 M⁻¹ s⁻¹. Further, the binding result in [11] is “no binding”.

B6: AB2-004 (1b2a3b4b5a6a activin/BMP-2 chimera) (ligand)
chain: MQAKHKQRKRLKSSCKRHPLYVDFSDVGWNDWIIAPSGYHANYCDGECPFPLADHLNSTNHAIVQTLVNSVNSKIPKACCVPTKLRPMSMLYYDDGQNIIKKDIQNMIVEECGCS
As for B6, the Kd in assay [6] came to 0.381 nM. In assay [7], this molecule displayed a koff of 0.000187 s⁻¹ and a kon of 491000 M⁻¹ s⁻¹.

B7: AB2-012 (1b2b3b4b5b6a activin/BMP-2 chimera) (ligand)
chain: MQAKHKQRKRLKSSCKRHPLYVDFSDVGWNDWIVAPPGYHAFYCHGECPFPLADHLNSTNHAIVQTLVNSVNSKIPKACCVPTELSAISMLYYDDGRNIIKKDIQNMIVEECGCS
Take B7: the Kd in [6] amounted to 0.472 nM. For the same molecule, in assay [7], the koff turned out to be 0.0016 s⁻¹ and the kon turned out to be 3.39e+06 M⁻¹ s⁻¹.

B8: Activin-βA (ligand)
chain: GLECDGKVNICCKKQFFVSFKDIGWNDWIIAPSGYHANYCEGECPSHIAGTSGSSLSFHSTVINHYRMRGHSPFANLKSCCVPTKLRPMSMLYYDDGQNIIKKDIQNMIVEECGCS
notes: also called Activin-A
With B8, the dissociation constant Kd in assay [8] and in [6] was 0.203 nM throughout. Further, in assay [12], the decrease in Smad-2/3 luciferase signaling in HEK293T cells in the presence of Cripto is 43%. In addition, the koff in assay [10] and in assay [7] was 0.000716 s⁻¹ each time. Also, the kon in assay [10] and in [7] was 3.52e+06 M⁻¹ s⁻¹ each time. The binding result in assay [11] was “no binding”.

As to B9, in assay [13], the “fold decrease of the free type II receptor ECD band intensity against receptor ECD alone” value is 9 fold.

B10: BMP2 homodimer (mature domain of human BMP2) (ligand)
chain: QAKHKQRKRLKSSCKRHPLYVDFSDVGWNDWIVAPPGYHAFYCHGECPFPLADHLNSTNHAIVQTLVNSVNSKIPKACCVPTELSAISMLYLDENEKVVLKNYQDMVVEGCGCR
notes: also called BMP-2wt; BMP-2ma
As for B10, the Kd turned out to be 36.8 nM in [6], 38.5 nM in [14] and 38.5 nM in assay [15].

Broadly, the Kd is the free concentration of one partner at which half of the binding sites on the other are occupied at equilibrium, for simple one-to-one binding. A low value points to tighter binding. The koff is the first-order rate constant of dissociation. One may read the kon as the second-order rate constant of association. Read a low kon as slow association.
